Measured values as given in patent US20240344241A1, “PROTEINACEOUS MOLECULES AND USES THEREFOR” (THE UNIVERSITY OF QUEENSLAND, priority 2021, published 2024).
Read-outs that look alike come from different tables or passages of the source. Ends that are not written are not given here.

How the values were obtained:
[1] = target: T1, human β-factor XIIa (human), P00748; test: competitive protease inhibition assay
T1 chain 1: NGPLSCGQR
T1 chain 2: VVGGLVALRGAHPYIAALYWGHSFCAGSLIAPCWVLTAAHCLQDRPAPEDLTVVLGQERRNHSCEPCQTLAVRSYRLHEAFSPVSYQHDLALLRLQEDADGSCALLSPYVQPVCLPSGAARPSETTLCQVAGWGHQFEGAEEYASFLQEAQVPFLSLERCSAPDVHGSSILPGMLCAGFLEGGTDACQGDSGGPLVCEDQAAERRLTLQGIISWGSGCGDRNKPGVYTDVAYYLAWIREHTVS

[2] = target: T1, human β-factor XIIa (human), P00748; test: SPR (Biacore T200), biotinylated human β-FXIIa captured on chip, peptide as analyte, 1:1 model
[3] = target: T1, human β-factor XIIa (human), P00748; test: competitive protease inhibition assay, Ac-QRFR-pNA substrate, Morrison Ki
[4] = target: T1, human β-factor XIIa (human), P00748; test: mRNA display affinity selection on bead-immobilised biotinylated human β-FXIIa, NGS; share of the sequence in the recovered library; peptide displayed as acyclic mRNA fusion
[5] = target: T1, human β-factor XIIa (human), P00748; test: SPR (Biacore T200), biotinylated human β-FXIIa captured on chip, peptide as analyte, 1:1 model
[6] = target: T1, human β-factor XIIa (human), P00748; test: mRNA display affinity selection on bead-immobilised biotinylated human β-FXIIa, NGS; share of the sequence in the recovered library
[7] = target: bovine trypsin (bovine), P00760; test: SPR, bovine trypsin
[8] = target: human cationic trypsin (human), P07477; test: competitive protease inhibition assay (selectivity panel), human trypsin, Boc-VPR-MCA
[9] = target: bovine trypsin (bovine), P00760; test: SPR, ratio of KD values
[10] = target: T1, human β-factor XIIa (human), P00748; test: SPR, ratio of KD values
[11] = target: T1, human β-factor XIIa (human), P00748; test: competitive protease inhibition assay, ratio of Ki values
[12] = target: T2, FXIIa in human plasma (generated by kaolin activation of FXII in aPTT assays) (human), P00748; test: cell-based or functional assay
T2 chain: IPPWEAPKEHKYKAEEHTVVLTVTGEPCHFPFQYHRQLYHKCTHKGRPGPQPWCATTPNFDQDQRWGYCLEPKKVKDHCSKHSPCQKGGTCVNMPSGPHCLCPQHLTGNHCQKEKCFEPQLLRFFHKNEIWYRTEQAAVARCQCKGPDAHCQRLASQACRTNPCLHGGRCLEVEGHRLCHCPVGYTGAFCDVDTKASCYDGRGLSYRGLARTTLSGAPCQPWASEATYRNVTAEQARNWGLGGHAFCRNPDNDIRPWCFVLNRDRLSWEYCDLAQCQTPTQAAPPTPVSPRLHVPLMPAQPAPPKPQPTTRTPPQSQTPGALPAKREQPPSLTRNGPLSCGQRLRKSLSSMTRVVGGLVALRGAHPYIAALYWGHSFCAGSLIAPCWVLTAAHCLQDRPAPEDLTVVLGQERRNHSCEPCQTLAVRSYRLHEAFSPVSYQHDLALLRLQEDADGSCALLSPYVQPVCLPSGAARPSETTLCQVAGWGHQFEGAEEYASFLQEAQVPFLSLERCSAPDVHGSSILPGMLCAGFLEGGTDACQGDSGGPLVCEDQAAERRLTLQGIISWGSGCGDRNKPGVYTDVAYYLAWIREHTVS

[13] = target: T3, recombinant human matriptase (human), Q9Y5Y6; test: competitive protease inhibition assay (selectivity panel), human matriptase, Boc-QAR-MCA
T3 chain: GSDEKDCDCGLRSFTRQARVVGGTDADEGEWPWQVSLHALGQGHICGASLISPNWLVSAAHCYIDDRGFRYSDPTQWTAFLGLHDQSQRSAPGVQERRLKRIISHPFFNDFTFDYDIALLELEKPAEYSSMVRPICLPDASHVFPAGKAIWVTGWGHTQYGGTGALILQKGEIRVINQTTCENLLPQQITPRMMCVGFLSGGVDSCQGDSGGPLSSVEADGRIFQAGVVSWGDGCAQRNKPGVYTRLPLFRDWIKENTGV

[14] = target: T3, recombinant human matriptase (human), …; test: competitive inhibition assay with peptide substrate
[15] = target: T1, human β-factor XIIa (human), P00748; test: as above
[16] = target: T4, kallikrein-related peptidase 4 (KLK4), Q9Y5K2; test: as above
T4 chain: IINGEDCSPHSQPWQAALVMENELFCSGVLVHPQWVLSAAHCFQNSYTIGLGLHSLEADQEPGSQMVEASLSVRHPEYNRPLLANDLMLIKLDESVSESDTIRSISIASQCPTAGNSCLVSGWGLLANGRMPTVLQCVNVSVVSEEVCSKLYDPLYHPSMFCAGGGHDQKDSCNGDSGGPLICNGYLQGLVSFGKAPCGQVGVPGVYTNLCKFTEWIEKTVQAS

[17] = target: human cationic trypsin (human), P07477; test: as above
[18] = target: T1, human β-factor XIIa (human), P00748; test: competitive protease inhibition assay, 0.5 nM FXIIa, Boc-QGR-MCA substrate

bovine trypsin (bovine), P00760, sequence (P00760 24-246): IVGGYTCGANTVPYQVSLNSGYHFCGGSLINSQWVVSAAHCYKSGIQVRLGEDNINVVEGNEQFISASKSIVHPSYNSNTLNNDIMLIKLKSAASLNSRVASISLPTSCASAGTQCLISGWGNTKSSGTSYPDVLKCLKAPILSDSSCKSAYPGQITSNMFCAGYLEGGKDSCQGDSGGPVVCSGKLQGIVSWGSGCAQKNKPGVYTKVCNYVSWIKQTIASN

| Binder | Kd [2] | Ki [3] | Kd [5] | Kd [7] | Ki [18] | also measured |
| --- | --- | --- | --- | --- | --- | --- |
| RICPRIGRLCRRDSDCPGACICRATRFCG (modifications not checked) [acyclic variant of MCoFx1 based on a minimized knottin scaffold (29 amino acids)] | – | – | – | – | – | Ki [1]: 1.4 nM |
| DGGRCCGGYLVCRRDSDCPGACICVFKKHCGSGS (modifications not checked) [MCoFx5 acyclic] | 23 nM | 106 nM | – | – | – | Population (%) [4]: 0.8% |
| DGGRCCGGYLVCRRDSDCPGACICVFKKHCGSGS (modifications not checked) [MCoFx5 cyclic] | 82 nM | 207 nM | 81.8 nM | – | – | – |
| MDGGICPRIGRLCRRDSDCPGACICRATRFCGSGSGS (modifications not checked) [MCoFx1, mRNA display selected sequence (parent of the saturation mutagenesis library)] | – | – | – | – | – | Population (%) [6]: 20.7% |
| DGGVCPRVGWRCRRDSDCPGACICYPTKWCGSGS (modifications not checked) [MCoFx4 acyclic] | 74 nM | 17 nM | 73.8 nM | 15.1 nM | – | Population (%) [4]: 2.3% |
| DGGVCPRVGWRCRRDSDCPGACICYPTKWCGSGS (modifications not checked) [MCoFx4 cyclic] | 14 nM | 5.5 nM | 14.4 nM | 4.09 nM | – | – |
| DGGICPRILVYCRRDSDCPGACICIRRTYCGSGS (modifications not checked) [MCoFx2 acyclic] | 45 nM | 73 nM | 45.4 nM | < 0.1 nM | – | Population (%) [4]: 19.8% |
| DGGICPRILVYCRRDSDCPGACICIRRTYCGSGS (modifications not checked) [MCoFx2 cyclic] | – | 12 nM | 10 nM | < 0.1 nM | – | – |
| DGGICPRIGRLCRRDSDCPGACICRATRFCGSGY (modifications not checked) [MCoFx1 cyclic] | – | 0.37 nM | 0.9 nM | 31.5 nM | – | Ki [8]: 1110 nM; fold lower affinity than MCoTI-II [9]: 300 fold; fold higher affinity than MCoTI-II [10]: 60 fold; fold more potent than MCoTI-II [11]: 350 fold; EC2× (inhibitor concentration that doubles the clotting time), aPTT assay in human plasma [12]: 702 nM; Ki [13]: 9.12 µM |
| DGGICPRIGRLCRRDSDCPGACICRATRFCGSGY (modifications not checked) [MCoFx1 acyclic] | 1.9 nM | 0.73 nM | 1.89 nM | 59.6 nM | – | – |
| DGGVCPKILKKCRRDSDCPGACICRGNGYCGSGS (modifications not checked) [MCoTI-II (Momordica cochinchinensis trypsin inhibitor-II), chemically synthesized, cyclic] | 58 nM | – | – | < 0.1 nM | – | – |
| RVCPRILKKCRRDSDCPGACICRGNGYCG (modifications not checked) [acyclic MCoTI-II variant M] | – | – | – | – | – | Ki [14]: 0.4 nM; Ki [15]: 3.3 nM; Ki [16]: 0.07 nM; Ki [17]: 0.4 nM |
| DGGRCPRLLRWCRRDSDCPGACICARGGLCGSGS (modifications not checked) [MCoFx3 acyclic] | 167 nM | 525 nM | – | 2.39 nM | – | Population (%) [4]: 2.3% |
| DGGRCPRLLRWCRRDSDCPGACICARGGLCGSGS (modifications not checked) [MCoFx3 cyclic] | 23 nM | 75 nM | 22.8 nM | 2.72 nM | – | – |
| GGICPRIGRLCRRDSDCPGACICRATGFCGSGSD (not fully specified (bridges); cysteine pairing not given here) [Cyclic [R27G]MCoFx7] | – | – | – | – | 0.21 nM | fold loss in activity against cyclic MCoFx7 [11]: 3.2 fold |
| GGICPRIGRLCRRDSDCPGACICRATRFCGSGSD (modifications not checked) [Cyclic MCoFx7] | – | – | – | – | 0.064 nM | – |
| GGICPRIGRLCTRDSDCPGACICRATRFCGSGSD (not fully specified (bridges); cysteine pairing not given here) [Cyclic [R12T]MCoFx7] | – | – | – | – | 0.065 nM | – |
| GGICPRIGRLCRKDSDCPGACICRATRFCGSGSD (not fully specified (bridges); cysteine pairing not given here) [Cyclic [R13K]MCoFx7] | – | – | – | – | 0.068 nM | – |
| GGICPRIGRLCRRDSDCPGACICRPTRFCGSGSD (not fully specified (bridges); cysteine pairing not given here) [Cyclic [A25P]MCoFx7] | – | – | – | – | 0.093 nM | – |
| GGICPRIGRLCERDSDCPGACICRATRFCGSGSD (not fully specified (bridges); cysteine pairing not given here) [Cyclic [R12E]MCoFx7] | – | – | – | – | 0.13 nM | fold weaker activity than cyclic MCoFx7 [11]: 2 fold |
| GGICPRIGRLCRRDSDCPGACICRATRFCGSGSP (not fully specified (bridges); cysteine pairing not given here) [Cyclic [D34P]MCoFx7] | – | – | – | – | 0.091 nM | – |
| GGICPRIGRLCRRDSDCPGACICRKTRFCGSGSD (not fully specified (bridges); cysteine pairing not given here) [Cyclic [A25K]MCoFx7] | – | – | – | – | 0.046 nM | – |
| GGICPRIGRLCRRDSDCPGACICRATHFCGSGSD (not fully specified (bridges); cysteine pairing not given here) [Cyclic [R27H]MCoFx7] | – | – | – | – | 0.12 nM | fold loss in activity against cyclic MCoFx7 [11]: 2 fold |
| GGICPRIGRLCVRDSDCPGACICRATRFCGSGSD (not fully specified (bridges); cysteine pairing not given here) [Cyclic [R12V]MCoFx7] | – | – | – | – | 0.069 nM | – |
| DGGICPRIGRLCRRDSDCPGACICRGNGYCGSGS (modifications not checked) [cMCoTI-fxL1] | – | 0.69 nM | – | – | – | Ki [8]: 996 nM; EC2× (inhibitor concentration that doubles the clotting time), aPTT assay in human plasma [12]: 500 nM; Ki [13]: 2.21 µM |
